Legend:
[1] = biological target: CRY1 photolyase homology region (PHR), residues 1-491 (human) (UniProt Q16526); experiment: fluorescence polarisation
[2] = biological target: T1, CRY1 photolyase homology region (PHR), residues 1-491 (human, UniProt Q16526 1-491); experiment: fluorescence polarisation
T1 sequence (looked up): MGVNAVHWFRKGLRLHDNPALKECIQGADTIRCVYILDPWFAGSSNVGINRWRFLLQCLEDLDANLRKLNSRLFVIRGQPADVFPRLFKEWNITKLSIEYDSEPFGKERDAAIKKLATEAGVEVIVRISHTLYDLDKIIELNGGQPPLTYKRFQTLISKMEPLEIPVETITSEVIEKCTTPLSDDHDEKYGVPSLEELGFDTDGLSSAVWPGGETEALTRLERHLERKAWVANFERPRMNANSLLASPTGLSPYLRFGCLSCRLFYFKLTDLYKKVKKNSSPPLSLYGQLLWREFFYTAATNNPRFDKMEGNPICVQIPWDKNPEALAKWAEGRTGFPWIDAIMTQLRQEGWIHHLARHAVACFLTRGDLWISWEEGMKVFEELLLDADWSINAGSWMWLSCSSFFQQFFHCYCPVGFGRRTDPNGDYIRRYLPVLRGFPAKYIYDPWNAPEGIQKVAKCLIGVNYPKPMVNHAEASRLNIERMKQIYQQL

Row | Molecule | fold lower affinity than the hCRY1 tail [1] [fold] | Kd [2] [µM]
1 | Δ11 version of the human CRY1 tail (from UniProt Q16526 492-586) (domain or fragment) | 4 | –
2 | human CRY1 tail (residues 492-586) (domain or fragment, UniProt Q16526 492-586, looked up, fluorescein (FAM) on the N-terminus in the FP binding assays) SRYRGLGLLASVPSNPNGNGGFMGYSAENIPGCSSSGSCSQGSGILHYAHGDSQQTHLLKQGRSSMGTGLSGGKRPSQEEDTQSIGPKVQRQSTN | – | ~5

— paper doi:10.1101/758714 (bioRxiv, 2019)
